From the DeepSol protein solubility set

experiment: soluble on expression in E. coli; label from the status in PepcDB or PDB records

Row | Sequence | soluble on expression in E. coli
1 | MVDIIIAEHAGFCFGVKRAVKLAEESLKESQGKVYTLGPIIHNPQEVNRLKNLGVFPSQGEEFKEGDTVIIRSHGIPPEKEEALRKKGLKVIDATCPYVKAVHEAVCQLTREGYFVVLVGEKNHPEVIGTLGYLRACNGKGIVVETLEDIGEALKHERVGIVAQTTQNEEFFKEVVGEIALWVKEVKVINTICNATSLRQESVKKLAPEVDVMIIIGGKNSGNTRRLYYISKELNPNTYHIETAEELQPEWFRGVKRVGISAGASTPDWIIEQVKSRIQEICEGQLVSSRSHHHHHH | soluble
2 | MGSDKIHHHHHHVPSGNGDNPATGARGGNMEISFLVPNSSNGSRAASAEDSGVYEDGTAEEYKVSNVTLYLFDSSSKNLVTTINVTQSDLGAGTSSGESSKEGQTIVYPCNKEITVKPGNYDILAVANGSQTFEIGQESTLLGQIDASTYGNGMITSVPGSGFIMSNRGSANMNITVESPEESDTKTQVRINLERAVAKLMVRNDSKEIYTLKNPAGVTYATVRLNNYKFINLANKFYTFRHVATLDNAPETPSAPSSYSVEAGNFGNIADNNGYLIDPYFFDKTVAGATTNFTGGSFYTNHLSKQTDSNWSGLADAGKYVSMYCLENCMFRPAQNTVYTTGIMLKGTFTPEASQTIGNNGNPVEDPLVFNTLYYFNYKFYTTLAAVGKYGDANIDGLTEESSDAELAAKQITRFTKNGGNFSTFYNYWIKHLDNNNPTVMGVMEFGIVRNNIYSVNITSIKNLGPGTPDTKPDPDENKAFLDVEFGVYPWIVRDQDADLE | not soluble
3 | MSKYSDAKELASLTLGKKTEYANQYDPSLLQPVPRSLNRNDLHLSATLPFQGCDIWTLYELSWLNQKGLPQVAIGEVSIPATSANLIESKSFKLYLNSYNQTRFASWDEVQTRLVHDLSACAGETVTVNVKSLNEYTAEPIVTMQGECIDDQDIEIANYEFDDALLQGAAQGEEVSEVLHSHLLKSNCLITNQPDWGSVEIAYHGAKMNREALLRYLVSFREHNEFHEQCVERIFTDIMRYCQPQSLTVYARYTRRGGLDINPFRSSHQSAPNHNQRMARQ | not soluble
4 | GGKDYPFARFNKTVQVPVYSEQEYQLYLHDDAWTKAETDHLFDLSRRFDLRFVVIHDRYDHQQFKKRSVEDLKERYYHICAKLANVRAVPGTD | soluble
5 | MGSDKIHHHHHHMAIRSNHILVSRTDNIGDIVLTLPMVARLRQLNPKAKISFLCRAYAAPLVRFCTDIDEVIELENIADDPAGFLRKSGIDTVILAQPDRTLAQAAFRARVRHRIGNARQKIYLMLYCNRRVRFSKRTTEDHEAQINFRFLSPYGSRDIPTREQIPDLYHFDIPEDKAISDMQAPYAFNLVLHTKSNGHGREWPIEHYAALAELLLARRDVHLWLSGSAKEGEWLKANGGALLAKPNVTSLCGTQTLGQLTTFIHQADGLIASGTGPLHLSAAIGQRTLGLFPPTRPMHPGRWAALGKRAQNLVRDKSCRDCEKLETISCDCMVQLSPQSVLEIVEGWIRDKSAA | not soluble
6 | MSLNGQSEYKGKLDYIIVLGAGLRGKHMLGTQYERVKKAAEYVKENPDVKIVVSGGKGNGEDISEAEAMKQYFLNKGFKNDSIIMEDKSKNTFENLRNSKKILEKISNKKEIRVGVVTSSYHITRAKLLGKRVGLKLYAIPAPINKLLLLQSYTREFFAFYKSIIFDRGEGHHHHHH | not soluble
7 | MTSDATHEEAVSLLQELGLKEYEAKCFVGLSRMSSGTAKGLSEVTDVPRTRVYDAVRILEAKGLVEVQHSSPQQFRAVPLSEATETLRDQYEERIERLQSALREMGRIEADNDEAELQEVWSLSGSDAIENRAAAISADATDEVVLVIGSEAVLTEPLIKQLNSLNPNADLIVGTGSASIRDRVEQEIPRATAFLSELDWLHSEMIPEEDAAVGRLLLVDRSTMLVSSINPQTGDEQAIFATGLRNGLIVIARRLLSQGVVEMTPLEQD | not soluble
8 | MGSDKIHHHHHHMTEITTLSQFLTTAKTQFQVYDLGRRVQHIDMLAFHQIESLSTPYPYPIQGHAQFAIVFWDASQQHFIWFLKLALDEQGLLSPAPRSQFIEMILAALGQDPTQPLSDEQQERLANNPFNFKPSQEKLAVFNALVRKQLGQRASSQYEFAVQYLSGQVAPAQWQHIGMQGIADVCARANEFDHEQQLVSSFDTAAIEVQIALCQCLEHLLISDTLADKILAKLQDAAPEHQAYFLRALASSAKHSQQAFEHLHGQASLDTNALISIAGRNWSVLKQDSSRSLYLEALALQPQAFFNQVFADIVAIPSLRNQLLGELRNPNRSVQLSQAIGGLFKAASK | not soluble
9 | MDAALRRLQTFLSTIPQCDHTKYEGHYQQVFYIIFSLLGYYVDVEVRTSRGRVDVVLRTEATLYVMELKLDKNATVAMEQINLKNYPERFALCGLPVVKVAVNFDSESGTLGDWMIEK | not soluble
10 | MATTSAQTSPTEFGAGLPEAEDHSESAEPQSVEAEVIDERYADVWEKIQHARTIDVHDDAEVRKQRNFFDDKQKFMTQVTQRAEPFLYYIVSQLEARNMPLELALLPIVESGYNPLAQANGPAGLWQMIPATGRNFGLTINSAYDGRKDALASTDAVLDYLQHLYNTLGNDWINAVAGYNSGELVIKAAIDRNKAKGKPTDFWSLNIPARQVQTVPKWLAFIQIIREPSHYNLKVMPIANRPFLERLPAPNGVEISQIANAAGLTKAEFKTYNPGYRQSVIPSKGKYQIALPIENIGHYQENQHKLYAQKRYDSQTYIVKSGDSLGTIAAKFDLSVKELKQANNLTSDRLKIGQELTLLTPMAANDNEPEPVKTKANTDKSSTKANASSTKATSSKSTDKPVAKAKTYKVKSGDSLDKIARKSKVKLADLMKWNQLNAKSIIKPGQELKISELEHHHHHH | not soluble
11 | DPFEDLDALGSILEEKYGLLEAHVVFSPTPDYAGITHDLSRYGAEYMHETVKDGDIVGVSWGTTMYQIAQNMQPKQVKGVEVVQLKGGISHSRVNTYSAETIQLFAEAFQTMPRYLPLPVVFDNADVKRMVEKDRHIERIIEMGKQANIALFTVGTVRDEALLFRLGYFNEEEKALLKKQAVGDICSRFFDAKGNICSSAINDRTIGVELQDLRLKERSILVAGGSRKVSSIHGALTGKYANVLIIDQHTARALVNDL | not soluble
12 | MLEPSHNDELPPIPGKRYFTIGEVSELCAVKPHVLRYWEQEFPQLNPVKRRGNRRYYQRLDVLMIRQIRGLLYDQGFTIGGARLRLTAGEPKDDTQQYKQMIREMIAELEDVLVMLKA | not soluble
13 | MLHITAAKARAGGQIGGVFCLAQCSLNVLVSGMQTQPLPPLISARPVGRGARSNDAGRFEPLERVAEHDGWEREEELPPLRTQVSLETARSLISYNRSPDLPFDRSINPYRGCEHGCSYCFARPSHAYLGLSPGLDFETRLVARPNAAEVLRAELSARRYKVAPIAIGTNTDPYQPLEKTHAITRACLQVLAEFNHPVAIVTRGALIERDLDILAPMAARGLVRVGISLTTLDAALARRMEPRAPSPKRRLAMIRALNGAGVPVRVMTSPLIPGLTDHELESLLAAGAEAGADTASWIMLRLPREVSPLWQEWLAEHAPARAAKVMARLREMHGGRDYDPRWGHRMRGEGEYAQMIAKRFRAACKRIGLAQEAPALRCDLFRVPPQPGDQLSLF | not soluble
14 | MRIARRAVEEWVEHGRRLDVEAGGKLGRPGAAFVTLERRSGDGWELRGCIGVVRPVLPLVEAVVTAAVDAASSDPRFEPLSREELDRVRVEVTVLGSMEPLPKKPHERPALVEVGLHGLYVEKPPYAGLLLPQVAVDEGWDPILFLTWACIKAGLPGTCWLREDVEIYRFRAAVWRETEPRGPVVRRDLAREAAAKGVNARVSTHISSCKSLEHHHHHHTHISSCKSLEHHHHHHTHISSCKSLEHHHHHHTHISSCKSLEHHHHHHTHISSCKSLEHHHHHHTHISSCKSLEHHHHHHTHISSCKSLEHHHHHH | not soluble
15 | MEYSQIPSFAFYNNASIFQFFPRNKRLNTHQKSCLDEHARKMAVFMMERQEEYRYYENLANQEQFSDDACFSDTGMDSGFCSGATSTGQSASTSPAPAHLIPNPFFDPEYVAKAQSPVKLVANPFYNPELVKEIKKKSRVSV | not soluble
16 | GMNNRELYGNIRDVYHLLQKNLDKAIEQYDISYVQFGVIQVLAKSGKVSMSKLIENMGCVPSNMTTMIQRMKRDGYVMTEKNPNDQRETLVYLTKKGEETKKQVDVQYSDFLKENCGCFTKEEEGILEDLLLKWKKHLN | soluble
17 | MKSVQEKRNNTRAFKTVAKSWFATKTTWSEDYQRSVWTRLETYLFPDIGNKDIAELDTGDLLVPIKKIEKLGYLEIAMRVKQYATAIMRYAVQQKMIRFNPAYDLEGAVQKLEHHHHHH | soluble
18 | MAHHHHHHMSLADEVPREWASSIRPFLQRADEFQERVPVVAYFLRTHAVYLAMKMWRKEDGPGKAFIVKLLDTLESEKKRLEQELADVDGRVLLTQYALRIFSRADDEERSDGVVANMNLVRLFFTASLLFEATAQFTDDGTLDPIATEKRDYARYIAVEMKKAMDKGVPYVSPNRTGGMVESNKEHEGESTGGGGFSTNFVQSQQPGYGQWSAQYVTPQPPPPSHEPPETPMWSGPESTNTSSTQQQQQSTPLFQTTAQPNNSNDNSNIAAAVSGVAAPKGPTMDAIIEAQNYAKQAVSALQFYDHEVACKMLRSALDLLAQR | soluble
19 | MGSDKIHHHHHHMLHIVNNLRDSFTPGTPHQAALAQIFPQDSEKQTMDKRDLSAIFRERLKLLLTRSDLNQSAFASAVGIDRSALSQLMSGASTRLPRAETLLNIAAEFKVSLDWLLGLSQDEGVTGEIRESLEIEEAPDGFDRTLLAKWFAEAAGTKIRYVPAGIPDLLRTRALVDYEANITNRSRLAQASETQYRIEYNRRPETDMEVCMPRHTLEIFARGLGVWDRFPEADRRQQLAHMATLLDDLYPTFRLFLYDGRMRYSIPLTIFGPYRAAIYVGDMYVVLNATQPVQALTQHFDNLIRAADVNPHEAAAFARNLAGMSFPSGSV | not soluble
20 | MTRKPLTLTGSALAVLRALVERGPSTRPQLGQDLGLSRPTMSAAMAELMEAGLVEPIGSVQGGMGRRAVEYRVATHAGHVIAVDAGSTHIRLRLSTLDRRLLHASLHPLPNSQYSLTPQISSVVADAVAEALEKTEVDWGPLLAMVIAIPTRVVGPEGDTAATDQEVIFTNFTPPPQVDCTLVNNVNCAAVAEYHYGAARGHQTFAFLQVGVKIGLGLMLNGQILPGVNGAAGEIGHITFPFAPGLTPVPGEAERYIGTEAFMARVRADWPKGSGRPPADTYELLARAGEGDAAALRHVEGHAAEIGAVIAICVSVIDPGLVVLGGGYGASPLLRPKVEEVVRHLAFPAEITTSTLAAEATVLGAERLAVDRAVSVLLGLPA | not soluble
21 | MKRDAKDHARNRLMNFYIKKAPTYSAIVKIEHFENDAPSEAKDFEPLVVYSLNKKKRWEINQEFLDSSSEGDDSKSVIIDREIPDLYFAWWSLGNVHSHDCVNHSKPVNSSQIDNAKKEEKVVGYHIVRVPKNHKKVFDNKCIRYIGLRYPEFLGYSSKDWPALQYEMKELEEEHEELEKENASLEAESTETTKPTGFYNLDEHFVAKKQRKPKGWLTVE | not soluble
22 | HWVTPDGQPGPSGEGGFTAESGRYHLFVSLACPWAHRTLIFRHLKDLQAHIGITIVDPRMLEHGWAFSEISRDNPVQDIRYLHQLYTRAKPDYTGRVTVPVLWDKQRDTIVSNESADIIRMFNSAFDSLTGNDLDFYPEALRNEIGTINEVVYRDFNN | not soluble
23 | MGSDKIHHHHHHMRPTENGVLHLRKKFVASLLAVAIASTTACAQLGISKEQAGTVIGGLAGVAIGSTMGSGNGKIAAALIAGGIGAYVGNRIGHMLDEKDQQALALRTQEVLSQQQTTASAQPVTWKSDHSGATAQIVPGKEYTKTKQVEVKRAPKIQAVPSMKLINEPYVTISDNLNVRAAPNQAGEKVGSLKNHTEFTAVGSTGDWILVGRKGVTVGYVHKNYVEPKAQAVAKRVTPAVNLDELDVAASKETQGFDLDSVQSLPTQTVAAEAACRPVTVSLKSQSGQTEQEQNTFCKQANGTWELI | not soluble
